Source: the supplement of paper PMC12764529
± gives the half width of the 95% confidence interval.

Assays:
[1] = folding stability dG unfold from trypsin proteolysis; higher = more stable
Procedure, shortened: (§1)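 K50 was inferred by Bayesian fitting of sequencing counts obtained after protease digestion of designed mini-proteins. Unfolding free energy was derived by comparison with a sequence-predicted unfolded-state K50 and a shared folded-state K50, for each protease or both combined. The mini-proteins were under 80 residues, had no cysteine, were carried in a PA-tagged cDNA display construct, and were kept only if AlphaFold2 dimer inter-PAE exceeded 15.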

[2] = folding stability dG unfold from chymotrypsin proteolysis; higher = more stable
Procedure, shortened: as §1

[3] = folding stability dG unfold (combined trypsin and chymotrypsin); higher = more stable
Procedure, shortened: as §1

Sequence | folding stability dG unfold [1] [kcal/mol] | folding stability dG unfold [2] [kcal/mol] | folding stability dG unfold [3] [kcal/mol]
SAGGRIRIEYDPENGTITIYVPTPDGEITPDQVEEIAKLLMELWPNIEVEIEPHPNGMVRITIKIPPKSAGG [r13_291_TrROS] | 3 ± 0.19 | 3.81 ± 0.23 | 3.54 ± 0.19
SAGGRIVEAAKEAGLDGVDLKEIRPLPDGGVEIRILPPPGMPEEAAAEAAERIERALREEFPDTRIDTESAG [r5_101_TrMRF] | -0.835 ± 0.33 | 0.207 ± 0.056 | -0.209 ± 0.31
SAGGRRPVTAEEAADRLMKELGIPGLKNIKDVTMEYEVYDPDGKPWSRVDITIKIKMPPEQRDRLKKLSAGG [r13_552_TrROS] | 0.607 ± 0.12 | 0.436 ± 0.19 | 0.51 ± 0.16
SAGGRTLEFNMKSNNPNMMENEISKLLRELGFPPGFDIEVNPERDPNGRYTYPITITVDNPELADKISAGGS [r8_85_TrROS] | 0.106 ± 0.43 | -0.00324 ± 0.54 | -0.0764 ± 0.42
SAGGRVDVRVERVGEGAVITLLADVEDPEPLVELLEASGLPVELARIEPVRDPVTGRLLVRAVFRVPSAGGS [r16_699_TrMRF] | 1.12 ± 0.069 | 1.14 ± 0.082 | 1.13 ± 0.095
SAGGSAAKIDPKNGTITIYNKKTGKKIKIKIKNLPPGAKVTIEIKNGKITIKVDGKTIEINIKEIKSAGGSA [r15_864_TrROS_Hall] | 2.1 ± 0.26 | 3.19 ± 0.19 | 2.85 ± 0.29
SAGGSAAKITEVEVEELEDGEVLIRVKVKPEDIDALLELAKKLPEENIELVEKREDGYYVLRIKRPSAGGSA [r15_386_TrROS_Hall] | 1.53 ± 0.043 | 1.87 ± 0.16 | 1.67 ± 0.15
SAGGSAAKPGETVRVVVTVRVPPGATAEELKAALEALLGPDAEVTVEVFETPDTVVVVVEVRLPPASAGGSA [r15_749_TrROS_Hall] | 2.65 ± 0.26 | 2.66 ± 0.11 | 2.74 ± 0.19
SAGGSAATTVAVNGKEITIVSVDPATGKVTIAVPENVPESVIQAAKDLLEAQGLPVEVKRVPPEKLSAGGSA [r15_570_JUSTAS] | 1.42 ± 0.044 | 1.3 ± 0.013 | 1.33 ± 0.05
SAGGSADADDVTIVINMFRNPNNKGWFFRIEIQDPDKEREIFMPFDDIPKFQEAGLKIEITEWYPFSAGGSA [r15_783_TrROS] | 2.41 ± 0.068 | 3.29 ± 0.038 | 3.03 ± 0.086
SAGGSADENGKPKPTLIIKIEVEHPNGQKFPLSFIFKSPEEAEEIANELANNGYEVNIRLMPLDQISAGGSA [r15_906_TrROS] | 1.07 ± 0.024 | 1.71 ± 0.044 | 1.55 ± 0.059
SAGGSADGRVVELPVRIRLYRRDPVSGRWELVEEFEVPVRVPAPKDAVVGLRIERRGDRFRIVVGVSAGGSA [r15_537_TrMRF] | 2.74 ± 0.08 | 3.537 ± 0.019 | 3.25 ± 0.07
SAGGSADIARKIAKWLAEMYGIEEIKVKDIDPNGYIKVEIKMRMYDDGEPVEHKMDIEIPIPPGDLSAGGSA [r15_646_TrROS] | 1.3 ± 0.035 | 2.3 ± 0.031 | 1.98 ± 0.081
SAGGSADPIRTISGPVPLEEIEANIKKLLKENPNLDAAVFYIPEIGSKITIYFKNGKIVKIEIDLSSAGGSA [r15_166_TrMRF] | 2.88 ± 0.084 | 4.79 ± 0.13 | 4.59 ± 0.16
SAGGSADVVLVEVRPPVLDPEGRPLLTLVLRLPDGGSRTLVVELSDLAGALANLPPNVRVDEIRPLSAGGSA [r15_339_TrMRF] | 0.443 ± 0.093 | 2.31 ± 0.035 | 2.01 ± 0.067
SAGGSAEEARALAEQVREEVRAAHAPDEVVTVTVELPDGTRVEVTFDAAGEVLSVTIYRPDGTPELSAGGSA [r2_84_JUSTAS] | 1.04 ± 0.025 | 2.27 ± 0.049 | 1.88 ± 0.077
SAGGSAEEEVETVTLTVTVTVPPAPEVEVVSVEVERLPDGTLRVRAVVRLKDVPDRFVEVELTIRPSAGGSA [r15_627_TrROS_Hall] | 3.41 ± 0.12 | 2.95 ± 0.042 | 3.18 ± 0.16
SAGGSAEELAKELAEKEGVKEVKVTVIKNKNGKLVLKVENKETNKTYEIELPEGAEVVEEITLKVKSAGGSA [r2_74_TrROS_Hall] | 0.106 ± 0.086 | 1.23 ± 0.061 | 0.923 ± 0.1
SAGGSAEETIEIEIPLEDLKPRKDGKLTEEEIKERLRKLIEELTGKKPKEITVERDENGTLRITIRSAGGSA [r15_562_TrROS_Hall] | 1.46 ± 0.13 | 2.54 ± 0.18 | 2.2 ± 0.23
SAGGSAEIPPGAKLEIDEMSFDPGNGRIEMMFKIEDPDGEPLWQIRVSWEFNPENGKMKLDIEIMPSAGGSA [r15_1028_TrROS] | 2.51 ± 0.19 | 3.8 ± 0.12 | 3.49 ± 0.14
SAGGSAEITEIEIEEEGGRLRVRATVTNENGETFEFEAEIELPPPPPPEEVTLERDPETDEWKEVTSAGGSA [r15_335_TrROS_Hall] | 2.17 ± 0.06 | 2.39 ± 0.087 | 2.22 ± 0.12
